# Data taken from article doi:10.1101/2023.12.15.571702.
# Biological target: piperazate synthase PipS, C-terminal His6-tagged (holo-PipS) (Streptomyces griseus subsp. griseus NRRL F-5144)
# Assay: crystal structure
substance,measurement,value
"piperazate synthase PipS, C-terminal His6-tagged (holo-PipS) (enzyme)",stoichiometry N,2
